Molecular target: PD-1 Ligand (PD-L1) (UniProt Q9NZQ7)
Sequence (Q9NZQ7 19-290): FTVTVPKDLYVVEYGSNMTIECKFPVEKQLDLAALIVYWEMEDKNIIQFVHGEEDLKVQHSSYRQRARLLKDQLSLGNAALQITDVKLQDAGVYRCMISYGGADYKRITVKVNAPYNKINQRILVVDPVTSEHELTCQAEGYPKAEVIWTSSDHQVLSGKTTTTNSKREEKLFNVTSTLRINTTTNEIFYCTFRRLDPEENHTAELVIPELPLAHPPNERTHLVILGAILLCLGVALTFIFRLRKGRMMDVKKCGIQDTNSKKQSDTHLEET

## WW domain containing E3 ubiquitin protein ligase 1 (WWP1)
  PD-L1 K63-linked poly-ubiquitination (gel images): WWP1 triggers PD-L1 K63-linked poly-ubiquitination
  PD-L1 ubiquitination (gel images): WWP1 triggers PD-L1 ubiquitination in a catalytic dependent manner
